B2: RPC2, subunit of human RNA polymerase III (natural protein)
chain: MDVLAEEFGNLTPEQLAAPIPTVEEKWRLLPAFLKVKGLVKQHIDSFNYFINVEIKKIMKANEKVTSDADPMWYLKYLNIYVGLPDVEESFNVTRPVSPHECRLRDMTYSAPITVDIEYTRGSQRIIRNALPIGRMPIMLRSSNCVLTGKTPAEFAKLNECPLDPGGYFIVKGVEKVILIQEQLSKNRIIVEADRKGAVGASVTSSTHEKKSRTNMAVKQGRFYLRHNTLSEDIPIVIIFKAMGVESDQEIVQMIGTEEHVMAAFGPSLEECQKAQIFTQMQALKYIGNKVRRQRMWGGGPKKTKIEEARELLASTILTHVPVKEFNFRAKCIYTAVMVRRVILAQGDNKVDDRDYYGNKRLELAGQLLSLLFEDLFKKFNSEMKKIADQVIPKQRAAQFDVVKHMRQDQITNGMVNAISTGNWSLKRFKMDRQGVTQVLSRLSYISALGMMTRISSQFEKTRKVSGPRSLQPSQWGMLCPSDTPEGEACGLVKNLALMTHITTDMEDGPIVKLASNLGVEDVNLLCGEELSYPNVFLVFLNGNILGVIRDHKKLVNTFRLMRRAGYINEFVSISTNLTDRCVYISSDGGRLCRPYIIVKKQKPAVTNKHMEELAQGYRNFEDFLHESLVEYLDVNEENDCNIALYEHTINKDTTHLEIEPFTLLGVCAGLIPYPHHNQSPRNTYQCAMGKQAMGTIGYNQRNRIDTLMYLLAYPQKPMVKTKTIELIEFEKLPAGQNATVAVMSYSGYDIEDALVLNKASLDRGFGRCLVYKNAKCTLKRYTNQTFDKVMGPMLDAATRKPIWRHEILDADGICSPGEKVENKQVLVNKSMPTVTQIPLEGSNVPQQPQYKDVPITYKGATDSYIEKVMISSNAEDAFLIKMLLRQTRRPEIGDKFSSRHGQKGVCGLIVPQEDMPFCDSGICPDIIMNPHGFPSRMTVGKLIELLAGKAGVLDGRFHYGTAFGGSKVKDVCEDLVRHGYNYLGKDYVTSGITGEPLEAYIYFGPVYYQKLKHMVLDKMHARARGPRAVLTRQPTEGRSRDGGLRLGEMERDCLIGYGASMLLLERLMISSDAFEVDVCGQCGLLGYSGWCHYCKSSCHVSSLRIPYACKLLFQELQSMNIIPRLKLSKYNE
notes: RPC2, second largest subunit of human RNA polymerase III (catalytic core; lobe, protrusion, fork loops 1 and 2); Subunit of the 17-subunit Pol III complex; source: Expi293F cells, transiently expressed, purified to homogeneity as part of the recombinant human Pol III complex

What was measured:
[1] = biological target: B2; test: cryo-EM structure; recombinant human Pol III (17 subunits) assembled with a DNA-RNA scaffold with seven dT in the non-template strand, 1:2 molar ratio, dialysed in 20 mM HEPES pH 8.0, 150 mM NaCl, 2 mM MgCl2, 2 mM DTT; 3D classification gave two states, PTC (3.6 Å, core 3.3 Å) and EC (3.6 Å); conditions: both partners purified
[2] = biological target: T1, RPC1, subunit of human RNA polymerase III (human, UniProt O14802 1-1390); test: as above; conditions: both partners purified
T1 construct: RPC1, largest subunit of human RNA polymerase III (catalytic core); Subunit of the 17-subunit Pol III complex; source: Expi293F cells, transiently expressed, purified to homogeneity as part of the recombinant human Pol III complex
T1 sequence: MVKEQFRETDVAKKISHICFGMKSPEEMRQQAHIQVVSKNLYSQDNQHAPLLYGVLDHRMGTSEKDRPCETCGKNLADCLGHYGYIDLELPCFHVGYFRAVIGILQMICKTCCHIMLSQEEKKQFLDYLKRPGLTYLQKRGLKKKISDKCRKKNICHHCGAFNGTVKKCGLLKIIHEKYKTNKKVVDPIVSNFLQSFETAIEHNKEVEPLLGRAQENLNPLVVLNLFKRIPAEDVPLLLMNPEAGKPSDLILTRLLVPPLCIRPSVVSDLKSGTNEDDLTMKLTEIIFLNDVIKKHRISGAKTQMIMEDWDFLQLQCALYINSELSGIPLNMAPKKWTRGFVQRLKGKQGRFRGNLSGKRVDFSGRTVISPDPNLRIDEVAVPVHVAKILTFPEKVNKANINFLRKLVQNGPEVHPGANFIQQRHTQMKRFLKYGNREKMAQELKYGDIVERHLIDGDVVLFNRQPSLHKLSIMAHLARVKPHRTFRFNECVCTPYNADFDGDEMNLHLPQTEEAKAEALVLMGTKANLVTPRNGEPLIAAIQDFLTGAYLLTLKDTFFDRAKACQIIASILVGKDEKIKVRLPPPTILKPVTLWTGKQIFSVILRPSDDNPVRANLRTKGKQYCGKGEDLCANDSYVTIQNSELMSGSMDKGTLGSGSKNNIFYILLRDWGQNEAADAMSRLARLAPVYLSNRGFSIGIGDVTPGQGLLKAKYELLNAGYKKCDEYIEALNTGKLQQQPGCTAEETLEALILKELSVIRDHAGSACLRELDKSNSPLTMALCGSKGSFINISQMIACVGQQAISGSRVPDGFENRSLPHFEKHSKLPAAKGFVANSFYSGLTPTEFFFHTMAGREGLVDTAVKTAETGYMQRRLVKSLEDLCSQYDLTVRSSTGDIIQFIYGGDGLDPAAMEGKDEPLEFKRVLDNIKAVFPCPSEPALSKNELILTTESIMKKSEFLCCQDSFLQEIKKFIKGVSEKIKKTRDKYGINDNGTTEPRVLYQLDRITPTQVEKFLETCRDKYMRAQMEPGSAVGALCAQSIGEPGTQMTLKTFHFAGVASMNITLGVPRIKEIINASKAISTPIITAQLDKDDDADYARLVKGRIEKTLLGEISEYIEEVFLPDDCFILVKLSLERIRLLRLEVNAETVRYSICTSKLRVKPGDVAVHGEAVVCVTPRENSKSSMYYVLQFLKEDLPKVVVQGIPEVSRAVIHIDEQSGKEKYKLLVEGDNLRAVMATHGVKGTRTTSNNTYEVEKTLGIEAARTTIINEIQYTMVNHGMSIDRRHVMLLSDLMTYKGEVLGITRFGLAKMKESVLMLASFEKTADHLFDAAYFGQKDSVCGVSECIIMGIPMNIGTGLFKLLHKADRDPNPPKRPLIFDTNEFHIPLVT

B1: RPC10, subunit of human RNA polymerase III (natural protein)
chain: not shown
notes: RPC10 of human RNA polymerase III, with N-terminal ribbon domain (N-ribbon) and C-terminal ribbon domain (C-ribbon); Subunit of the 17-subunit Pol III complex; also called C11 (yeast equivalent); source: Expi293F cells, transiently expressed, purified to homogeneity as part of the recombinant human Pol III complex
B1: binds [1].

B2: binds [2].

B3: RPC4-RPC5 dimer module of human RNA polymerase III (complex)
chain 1: MSEGNAAGEPSTPGGPRPLLTGARGLIGRRPAPPLTPGRLPSIRSRDLTLGGVKKKTFTPNIISRKIKEEPKEEVTVKKEKRERDRDRQREGHGRGRGRPEVIQSHSIFEQGPAEMMKKKGNWDKTVDVSDMGPSHIINIKKEKRETDEETKQILRMLEKDDFLDDPGLRNDTRNMPVQLPLAHSGWLFKEENDEPDVKPWLAGPKEEDMEVDIPAVKVKEEPRDEEEEAKMKAPPKAARKTPGLPKDVSVAELLRELSLTKEEELLFLQLPDTLPGQPPTQDIKPIKTEVQGEDGQVVLIKQEKDREAKLAENACTLADLTEGQVGKLLIRKSGRVQLLLGKVTLDVTMGTACSFLQELVSVGLGDSRTGEMTVLGHVKHKLVCSPDFESLLDHKHR
chain 2: MANEEDDPVVQEIDVYLAKSLAEKLYLFQYPVRPASMTYDDIPHLSAKIKPKQQKVELEMAIDTLNPNYCRSKGEQIALNVDGACADETSTYSSKLMDKQTFCSSQTTSNTSRYAAALYRQGELHLTPLHGILQLRPSFSYLDKADAKHREREAANEAGDSSQDEAEDDVKQITVRFSRPESEQARQRRVQSYEFLQKKHAEEPWVHLHYYGLRDSRSEHERQYLLCPGSSGVENTELVKSPSEYLMMLMPPSQEEEKDKPVAPSNVLSMAQLRTLPLADQIKILMKNVKVMPFANLMSLLGPSIDSVAVLRGIQKVAMLVQGNWVVKSDILYPKDSSSPHSGVPAEVLCRGRDFVMWKFTQSRWVVRKEVATVTKLCAEDVKDFLEHMAVVRINKGWEFILPYDGEFIKKHPDVVQRQHMLWTGIQAKLEKVYNLVKETMPKKPDAQSGPAGLVCGDQRIQVAKTKAQQNHALLERELQRRKEQLRVPAVPPGVRIKEEPVSEEGEEDEEQEAEEEPMDTSPSGLHSKLANGLPLGRAAGTDSFNGHPPQGCASTPVARELKAFVEATFQRQFVLTLSELKRLFNLHLASLPPGHTLFSGISDRMLQDTVLAAGCKQILVPFPPQTAASPDEQKVFALWESGDMSDQHRQVLLEIFSKNYRVRRNMIQSRLTQECGEDLSKQEVDKVLKDCCVSYGGMWYLKGTVQS
notes: RPC4 of human RNA polymerase III (dimer module); RPC5 of human RNA polymerase III (dimer module; holds the hotspot); the mammal-specific C-terminal domain was not seen in the PTC map; Named throughout as a heterodimer; Part of the 17-subunit Pol III complex; also called RPC4-5; C53-C37 (yeast equivalent); source: Expi293F cells, transiently expressed, purified to homogeneity as part of the …
B3: binds [1].

— paper PMC8531034, “Structural insights into RNA polymerase III-mediated transcription termination through trapping poly-deoxythymidine” (Nature Communications, 2021)
